Columns and labels:
PLCγ1 cSH2 domain = experiment: AlphaLISA, isolated PLCγ1 cSH2; format: binding; conditions: phosphorylated, 300 nM each protein, domain tested individually
Protocol: Fig 4 The PLCγ1 cSH2 domain is required for the binding of PLCγ1 to phosphorylated pK15 in vitro and may serve as a dominant-negative inhibitor. GST-fused pK15 cytoplasmic tail WT (A), or its truncated mutant N2 [51] (B), were phosphorylated in vitro by 2xStrep-Src and an AlphaLISA was performed with the indicated His-tagged fragments of PLCγ1. Mean and standard deviation from at least two independent experiments with two technical replicates each are depicted. GST fusion proteins of the N1 (C) or N2 (D) truncation mutants of the pK15 cytoplasmic tail were phosphorylated in vitro by 2xStrep-Src and their interaction with recombinant purified PLCγ1 tSH2 (tandem SH2) or SA (γ-specific array) domains was measured by AlphaLISA in the presence of increasing concentrations (300 nM, 600 nM, 900 nM, 1200 nM) of the purified PLCγ1 cSH2. […] After 48h lysates were collected and analysed by Western blot using an antibody to PLCγ1 pY^783 to assess the level of PLCγ1 phosphorylation. (F) The intensities of the pPLCγ1 bands shown in panel E were quantified by densitometry, normalized to the values obtained with the empty vector (EV) in the presence of pK15, and plotted as relative values. […]
His-tagged PLCγ1 (SA, tSH2 or the isolated SH2 domains) was incubated at room temperature with GST-tagged K15P or its mutants for 1 hour. […] Emission at 615 nm was detected on BioTek Synergy 2 plate reader.

[1] = test system: full-length PLCγ1 R586L or R694L; experiment: GST-pulldown, full-length PLCγ1 R586L or R694L; format: binding; conditions: phosphorylated; full-length PLCγ1, HEK 293T; versus WT
Protocol: Fig 3 Contribution of individual PLCγ1 SH2 domains to the interaction with phosphorylated pK15. The pK15 CT fused to GST, its Y^481F mutant, or GST alone were bound to glutathione beads, phosphorylated in vitro (+) or left unphosphorylated (-), and a GST pulldown was performed 32h after transfection into HEK-293T cells of expression vectors for S-tagged full-length PLCγ1 (FL) (A) or PLCγ1 SA (B) containing the indicated mutations. (C) pK15 CT WT, its Y^481F mutant or GST were bound to glutathione beads, phosphorylated in vitro (+) or left unphosphorylated (-), and used for a GST pulldown assay 32h after transfecting HEK 293T cells with expression vectors for S-tagged individual PLCγ1 nSH2 or cSH2 domains. […]
HEK293T cells were washed once with cold PBS 30 hours after transfection, lysed in IP buffer (50 mM Tris pH7.6, 60 mM NaCl, 6.25 mM EDTA, 1% (v/v) glycerol, 0.04% (v/v) NP-40) on ice for 30 minutes, sonicated shortly and cleared by centrifugation for 10 minutes at 20.000g, 4°C. […] Beads were then washed 5 times in 500 μl IP buffer (or for purified proteins IP buffer with 200 mM NaCl), suspended in 10 μl of 5x Laemmli sample buffer (60 mM Tris pH6.8, 24% (v/v) glycerol, 2% (v/v) SDS, 5% (v/v) β-mercaptoethanol, 0.01% Bromphenol Blue) and analysed by western blot.

B1: pK15 CT^WT: pK15 cytoplasmic tail fused to GST at its N-terminal end, phosphorylated in vitro by Src (protein)
chain: SQLLNEVELQEVNRDPPNVFGYASILVSGAEESREPSPQPDQSGMSILRVDGGSAFRIDTAQAATQPTDDLYEEVLFPRN
modifications: tyrosine-phosphorylated in vitro by Src; sites not stated for this construct; left off: GST, N-terminal, kept
interaction (AlphaLISA) (PLCγ1 cSH2 domain): only the PLCγ1 cSH2 domain (and not the nSH2 domain) interacted | interaction (AlphaLISA) (PLCγ1 cSH2 domain; listed as pK15 CT^N2): did interact with the tSH2 and cSH2 domains | binding of mutants (GST-pulldown) [1]: moderately reduced binding
